# Source: patent US20260248877A1 (Universite de Rennes, priority 2021, published 2026)
# Values joined by “and” are separate entries in the source; they are usually repeats but may differ in a detail not shown here. Equal values may be shown once. “Also recorded” adds a separate entry of the source.
# What was measured:
# [1] = test system: cells of the neuroblastoma line SH-SY5Y; experiment: Growth of SH-SY5Y neuroblastoma cells (images); assay type: cell-based; conditions: 100 μM, 24 hours, 1×DMEM medium, 8% serum
# Protocol: The effects of three hexapeptides classified as “therapeutic” (1tp, 4tp, 6tp) and of two peptides classified as “amyloid” (7tp and 1p) on the growth of cells of the neuroblastoma line SH-SY5Y were studied after 24 hours of treatment in the presence of a hexapeptide at a concentration of 100 μM in 1×DMEM medium, 8% serum. The results obtained are presented on FIG. 10(A).
# [2] = target: T1, PHF6 peptide (VQIVYK, 1p) (Homo sapiens, UniProt P10636); experiment: Effects of the derived peptides on VQIVYK polymerization by spectrofluorimetry (ThT kinetics); assay type: biochemical; conditions: [1p]=155 μM, [selected peptide]=310 μM; for fluorescence intensity (plateau / at 100 minutes) of 1p in the presence of peptide, % of 1p alone / maximum polymerization rate of 1p in the presence of peptide, % of 1p alone: [ThT]=32 μM; for inhibitory effect on 1p (PHF6) polymerization (in words): thresholds 50% rate, 100% fluorescence intensity
# T1 construct: The polymerization of VQIVYK was initiated by adding ¼ of the volume of fibrillation buffer 5×
# [3] = Determination of the aggregative character of the peptides by sedimentation; assay type: physicochemical; conditions: for aggregative character (in words): sedimentation, Garnier-Delamarche representation; for % sedimentation: 800 μM peptide, sedimentable peptide after polymerization as percentage of total concentration (16p and 9tp: 288 μM per FIG. 3 legend)
# Protocol: (§1) After thawing, a pre-dilution in milli Q H2O filtered through 0.2 μm was carried out in order to obtain a solution at a concentration close to the working concentration, greater than 1.25 times. This stock solution was left to incubate for 1 hour in a water bath at 25° C., and was then assayed spectrophotometrically and adjusted to the final working concentration of 1.25 times. The polymerization was initiated by adding ¼ of the volume of 5× fibrillation buffer (50 mM MOPS, 750 mM NaCl, pH=7.2) for a final concentration of 1× fibrillation buffer (10 mM MOPS, 150 mM NaCl, PH=7.2). The samples were left to incubate for 1.5-2 hours at 25° C. in a water bath. The study of the polymerization by fluorimetry was carried out under the same conditions, except that the 5× polymerization buffer was supplemented with Thioflavin T (ThT) at 100 μM in order to be able to observe the fluorescence. • (a) Determination of the Aggregative Character of the Peptides. Once polymerized, the samples were ultracentrifuged at 100,000 g for 5 minutes at 25° C. (Beckman TL100, rotor TL-A100). The supernatants of each sample were then collected. An assay at 280 nm in triplicate of each supernatant was then carried out in the presence of 1% SDS. The concentration of the supernatant was determined using the Beer-Lambert law A=ε×1×C; ε (peptides)=1450 M^−1cm^−1. The concentration of sedimentable species in the pellet was then deduced by the difference: “total concentration of the sample—concentration of free peptide present in the supernatant”. • (b) Determination of the Amyloidogenic Character of the Peptides. Once the peptides have polymerized as previously indicated, 40 μL of peptides polymerized at a concentration of 400 μM and 800 μM were diluted in 360 μL of Thioflavin T (10 μM ThT, 1×MOPS) in a thermostatically controlled tank of 0.2×1 cm, to a final volume of 400 μL. The fluorescence of the sample was then measured immediately after dilution by recording a fluorescence spectrum (470 nm to 600 nm) at an excitation wavelength of 450 nm (Perkin Elmer LS 55, PM 750, slit10).
# (§2) After prediction of their amyloidogenic character by bioinformatics, all the peptides were studied using biochemical techniques, namely sedimentation and fluorescence/ThT. The biochemical experiments were carried out at two peptide concentrations: 400 μM and 800 μM. Only the results obtained at 800 μM are presented. At this concentration, in sedimentation, the amount of sedimentable peptide after polymerization was measured and expressed as a percentage as a function of the total concentration. This value corresponds to the aggregative character of the peptides. On the other hand, the fluorescence test was used to determine their amyloidogenic character, the fluorescence value given corresponds to a normalization with respect to 1p, considering that its fluorescence is 100% (Table 4).
# [4] = Determination of the amyloidogenic character of the peptides by Thioflavin T fluorescence; assay type: physicochemical; conditions: for amyloidogenic character (in words): ThT fluorescence, Garnier-Delamarche representation; for % fluorescence: 800 μM peptide, ThT fluorescence normalized to 1p = 100% (16p and 9tp: 288 μM per FIG. 3 legend)
# Protocol: as §1, §2
# [5] = Solubility of peptides in aqueous medium; assay type: physicochemical; conditions: could not be tested at 800 μM
# Protocol: The PHIF6 peptide (Ac-VQIVYK-NH2) as well as the derived hexapeptides were produced by Proteogenix® in an N-acetylated and C-amidated form and supplied in a lyophilized form. They are acetylated and amidated in order to better mimic the original protein. They were resuspended in milli Q water and filtered through 0.2 μm to obtain a concentration close to 5 mg/mL. After being vortexed for 15 minutes, the peptide solution was sonicated for 15 minutes at 35° C. in a sonicator water bath (Advantage-Lab AL04-04) then ultracentrifuged (Beckman TL100) at 100,000 g for 10 minutes at 20° C. The pellet containing the residual aggregates was discarded. The concentration of the supernatant was determined by measuring UV absorption at 280 nm using a molar extinction coefficient of 1450 M^−1cm^−1 in 1% SDS.
Substance,aggregative character (in words) [3],amyloidogenic character (in words) [4],% sedimentation [3] [%],% fluorescence [4],also measured
"Ac-IQVVYK-NH2 [7tp, IQVVYK]",,,,,effect on cell growth (number and appearance of cells) [1]: the number of cells seemed to strongly decrease
"Ac-VKIQYV-NH2 [4tp, VKIQYV]",,,,,effect on cell growth (number and appearance of cells) [1]: did not seem to have any effect
"Ac-VKIVYQ-NH2 [1tp, VKIVYQ]",,,,,"fluorescence intensity (plateau / at 100 minutes) of 1p in the presence of peptide, % of 1p alone [2]: 23.5%; maximum polymerization rate of 1p in the presence of peptide, % of 1p alone [2]: 12%; effect on cell growth (number and appearance of cells) [1]: did not seem to have any effect"
"Ac-VQIVYK-NH2 [1p, Ac-VQIVYK-NH2, reference compound]",self-aggregative,strong amyloidogenic,,,effect on cell growth (number and appearance of cells) [1]: the number of cells seemed to strongly decrease
"Ac-YQVKIV-NH2 [16p, YQVKIV]",,,,,solubility in aqueous medium [5]: low solubility
"Ac-YQVVIK-NH2 [9tp, YQVVIK]",,,,,solubility in aqueous medium [5]: low solubility
IKQVYV (Ac-IKQVYV-NH2) [5p],weakly aggregative,weakly amyloidogenic,5,1.1%,category of polymerization kinetics of 1p in the presence of peptide [2]: generally follow the kinetics of 1p alone; inhibitory effect on 1p (PHF6) polymerization (in words) [2]: marked inhibitory effect; also recorded: with a weak inhibitory effect
IQYVVK (Ac-IQYVVK-NH2) [8tp],,,78,17.5%,
IYVQKV (Ac-IYVQKV-NH2) [9p],weakly aggregative,weakly amyloidogenic,1,2.1%,category of polymerization kinetics of 1p in the presence of peptide [2]: generally follow the kinetics of 1p alone; inhibitory effect on 1p (PHF6) polymerization (in words) [2]: without any inhibitory effect
KQIVYV (Ac-KQIVYV-NH2) [20p],,,75,1.3%,
KVQIVY (Ac-KVQIVY-NH2) [10p],,,63,3.2%,
KVQYVI (Ac-KVQYVI-NH2) [14p],weakly aggregative,weakly amyloidogenic,1,4.4%,category of polymerization kinetics of 1p in the presence of peptide [2]: generally follow the kinetics of 1p alone; inhibitory effect on 1p (PHF6) polymerization (in words) [2]: without any inhibitory effect
KYIQVV (Ac-KYIQVV-NH2) [2p],,,67,2.8%,
KYVIQV (Ac-KYVIQV-NH2) [15p],,,71,3.9%,
QKVVYI (Ac-QKVVYI-NH2) [18p],,,51,6.8%,
QKVYIV (Ac-QKVYIV-NH2) [19p],vice versa,vice versa,76,0.8%,

Substance,aggregative character (in words) [3],amyloidogenic character (in words) [4],% sedimentation [3] [%],% fluorescence [4],also measured
QKYIVV (Ac-QKYIVV-NH2) [8p],,,0,1.9%,category of polymerization kinetics of 1p in the presence of peptide [2]: very high rate and intensity of fluorescence; inhibitory effect on 1p (PHF6) polymerization (in words) [2]: without any inhibitory effect
QVIKYV (Ac-QVIKYV-NH2) [23p],weakly aggregative,weakly amyloidogenic,5,0.8%,"category of polymerization kinetics of 1p in the presence of peptide [2]: very high rate and intensity of fluorescence; fluorescence intensity (plateau / at 100 minutes) of 1p in the presence of peptide, % of 1p alone [2]: 161.7%; maximum polymerization rate of 1p in the presence of peptide, % of 1p alone [2]: 65%; inhibitory effect on 1p (PHF6) polymerization (in words) [2]: non-inhibitory peptide; also recorded: without any inhibitory effect"
VKVIYQ (Ac-VKVIYQ-NH2) [7p],,,86,1.3%,
VKVYIQ (Ac-VKVYIQ-NH2) [11p],,,6,25%,
VKYQVI (Ac-VKYQVI-NH2) [3p],more aggregative than the 10 selected hexapeptides,very poorly amyloidogenic,18,0.2%,
VQIKYV (Ac-VQIKYV-NH2) [0tp],,,0,10.7%,
VQKIYV (Ac-VQKIYV-NH2) [4p],weakly aggregative,weakly amyloidogenic,1,0.8%,"category of polymerization kinetics of 1p in the presence of peptide [2]: generally follow the kinetics of 1p alone; fluorescence intensity (plateau / at 100 minutes) of 1p in the presence of peptide, % of 1p alone [2]: 80%; maximum polymerization rate of 1p in the presence of peptide, % of 1p alone [2]: 50%; inhibitory effect on 1p (PHF6) polymerization (in words) [2]: inhibits the polymerization of 1p; also recorded: marked inhibitory effect; also recorded: with a weak inhibitory effect"
VQVIYK (Ac-VQVIYK-NH2) [12p],,,14,82% and 81.6%,
VQVKYI (Ac-VQVKYI-NH2) [21p],poorly aggregative,amyloidogenic,33,19.9%,
VQVYKI (Ac-VQVYKI-NH2) [22p],,,34,3%,
VQYVIK (Ac-VQYVIK-NH2) [5tp],aggregative,amyloidogenic,26,71.7%,
VVIKYQ (Ac-VVIKYQ-NH2) [3tp],,,48,0.9%,
VVIQYK (Ac-VVIQYK-NH2) [2tp],,,58,2.9%,
VVQKYI (Ac-VVQKYI-NH2) [6p],weakly aggregative; also recorded: more aggregative than the 10 selected hexapeptides,weakly amyloidogenic; also recorded: very poorly amyloidogenic,14,0.2%,
YIVVQK (Ac-YIVVQK-NH2) [13p],weakly aggregative,weakly amyloidogenic,0,2.7%,category of polymerization kinetics of 1p in the presence of peptide [2]: generally follow the kinetics of 1p alone; inhibitory effect on 1p (PHF6) polymerization (in words) [2]: without any inhibitory effect
YQVIVK (Ac-YQVIVK-NH2) [17p],,,95,2.3%,
